# Numbered stars: 1 amine (or outer) side, 2 acyl side, 3 side chain; on linkers, the order of the positions; unused ones are H or OH. Bridge positions count the residues as written; N and C are the ends. Side chains are listed from the residue outwards. Ends that are not written are not given here. * marks the point of attachment. C20 diacid = O=C(O)CCCCCCCCCCCCCCCCCCC(=O)*; γGlu = O=C(O)[C@H](CCC(=O)[*:2])N[*:1]
# T1: human calcitonin receptor (human, UniProt P30988 25-474)
# T1 construct: whole, on cells; Membranes of BHK cells stably transfected with the human calcitonin receptor (Assay VII); also called hCTR; hCT
# T1 sequence (looked up): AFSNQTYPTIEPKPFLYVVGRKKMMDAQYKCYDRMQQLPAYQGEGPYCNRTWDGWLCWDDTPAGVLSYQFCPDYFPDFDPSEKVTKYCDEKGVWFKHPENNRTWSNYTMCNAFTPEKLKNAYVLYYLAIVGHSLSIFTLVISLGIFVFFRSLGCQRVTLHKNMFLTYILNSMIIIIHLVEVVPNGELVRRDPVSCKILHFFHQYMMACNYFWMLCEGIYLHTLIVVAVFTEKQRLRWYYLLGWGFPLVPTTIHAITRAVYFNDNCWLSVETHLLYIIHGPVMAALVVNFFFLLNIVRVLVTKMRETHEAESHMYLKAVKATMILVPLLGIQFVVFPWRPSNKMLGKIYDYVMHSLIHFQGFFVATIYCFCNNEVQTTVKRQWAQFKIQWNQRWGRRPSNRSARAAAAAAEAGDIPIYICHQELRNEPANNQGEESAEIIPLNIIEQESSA
# Assays:
# [1] = target: T1, human calcitonin receptor; assay: ratio of IC50 at hCTR over IC50 at hAmylin-R (SPA competition assays)
# Method in brief: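 Competition binding by SPA with cell membranes (35 ng/μL) and SPA beads in 50 mM Hepes pH 7.4 with 1 mM CaCl2, 5 mM MgCl2, 0.1% OA and 0.02% Tween20. Incubated 120 min at 25 °C with shaking, then counted.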
# [2] = target: T1, human calcitonin receptor; assay: SPA competition against 125I-calcitonin, membranes of BHK cells with human calcitonin receptor (Assay VII)
# Method in brief: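 BHK hCTR membranes 35 ng/μL + SPA beads 0.05 mg/well; buffer 50 mM Hepes pH 7.4, 1 mM CaCl2, 5 mM MgCl₂, 0.1% OA, 0.02% Tween20. 120 min, 25° C., shaking. Scintillation count; IC50 by one-site binding competition.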
Binder,Ratio hCT/hAmylin binding [1],IC50 [2] [nM]
K([γGlu-C20 diacid])CNTATCATQRLAEFLRHSSPNFGAIPSSTNVGPNTP-NH2 (disulfide 2-7; N-terminus assumed; SMILES CC[C@H](C)[C@H](NC(=O)[C@H](C)NC(=O)CNC(=O)[C@H](Cc1ccccc1)NC(=O)[C@H](CC(N)=O)NC(=O)[C@@H]1CCCN1C(=O)[C@H](CO)NC(=O)[C@H](CO)NC(=O)[C@H](Cc1c[nH]cn1)NC(=O)[C@H](CCCNC(=N)N)NC(=O)[C@H](CC(C)C)NC(=O)[C@H](Cc1ccccc1)NC(=O)[C@H](CCC(=O)O)NC(=O)[C@H](C)NC(=O)[C@H](CC(C)C)NC(=O)[C@H](CCCNC(=N)N)NC(=O)[C@H](CCC(N)=O)NC(=O)[C@@H](NC(=O)[C@H](C)NC(=O)[C@@H]1CSSC[C@H](NC(=O)[C@@H](N)CCCCNC(=O)CC[C@H](NC(=O)CCCCCCCCCCCCCCCCCCC(=O)O)C(=O)O)C(=O)N[C@@H](CC(N)=O)C(=O)N[C@@H]([C@@H](C)O)C(=O)N[C@@H](C)C(=O)N[C@@H]([C@@H](C)O)C(=O)N1)[C@@H](C)O)C(=O)N1CCC[C@H]1C(=O)N[C@@H](CO)C(=O)N[C@@H](CO)C(=O)N[C@H](C(=O)N[C@@H](CC(N)=O)C(=O)N[C@H](C(=O)NCC(=O)N1CCC[C@H]1C(=O)N[C@@H](CC(N)=O)C(=O)N[C@H](C(=O)N1CCC[C@H]1C(N)=O)[C@@H](C)O)C(C)C)[C@@H](C)O),0.5,0.117
K([γGlu-C20 diacid])CNTATCATQRLAHFLRHSSPNFGAIPSSTNVGPNTP-NH2 (disulfide 2-7; N-terminus assumed; SMILES CC[C@H](C)[C@H](NC(=O)[C@H](C)NC(=O)CNC(=O)[C@H](Cc1ccccc1)NC(=O)[C@H](CC(N)=O)NC(=O)[C@@H]1CCCN1C(=O)[C@H](CO)NC(=O)[C@H](CO)NC(=O)[C@H](Cc1c[nH]cn1)NC(=O)[C@H](CCCNC(=N)N)NC(=O)[C@H](CC(C)C)NC(=O)[C@H](Cc1ccccc1)NC(=O)[C@H](Cc1c[nH]cn1)NC(=O)[C@H](C)NC(=O)[C@H](CC(C)C)NC(=O)[C@H](CCCNC(=N)N)NC(=O)[C@H](CCC(N)=O)NC(=O)[C@@H](NC(=O)[C@H](C)NC(=O)[C@@H]1CSSC[C@H](NC(=O)[C@@H](N)CCCCNC(=O)CC[C@H](NC(=O)CCCCCCCCCCCCCCCCCCC(=O)O)C(=O)O)C(=O)N[C@@H](CC(N)=O)C(=O)N[C@@H]([C@@H](C)O)C(=O)N[C@@H](C)C(=O)N[C@@H]([C@@H](C)O)C(=O)N1)[C@@H](C)O)C(=O)N1CCC[C@H]1C(=O)N[C@@H](CO)C(=O)N[C@@H](CO)C(=O)N[C@H](C(=O)N[C@@H](CC(N)=O)C(=O)N[C@H](C(=O)NCC(=O)N1CCC[C@H]1C(=O)N[C@@H](CC(N)=O)C(=O)N[C@H](C(=O)N1CCC[C@H]1C(N)=O)[C@@H](C)O)C(C)C)[C@@H](C)O),1.2,0.157
K([γGlu-C20 diacid])CNTATCATQRLAHFLRHSSPNFGAIPSSTPVGPNTY-NH2 (disulfide 2-7; N-terminus assumed; SMILES CC[C@H](C)[C@H](NC(=O)[C@H](C)NC(=O)CNC(=O)[C@H](Cc1ccccc1)NC(=O)[C@H](CC(N)=O)NC(=O)[C@@H]1CCCN1C(=O)[C@H](CO)NC(=O)[C@H](CO)NC(=O)[C@H](Cc1c[nH]cn1)NC(=O)[C@H](CCCNC(=N)N)NC(=O)[C@H](CC(C)C)NC(=O)[C@H](Cc1ccccc1)NC(=O)[C@H](Cc1c[nH]cn1)NC(=O)[C@H](C)NC(=O)[C@H](CC(C)C)NC(=O)[C@H](CCCNC(=N)N)NC(=O)[C@H](CCC(N)=O)NC(=O)[C@@H](NC(=O)[C@H](C)NC(=O)[C@@H]1CSSC[C@H](NC(=O)[C@@H](N)CCCCNC(=O)CC[C@H](NC(=O)CCCCCCCCCCCCCCCCCCC(=O)O)C(=O)O)C(=O)N[C@@H](CC(N)=O)C(=O)N[C@@H]([C@@H](C)O)C(=O)N[C@@H](C)C(=O)N[C@@H]([C@@H](C)O)C(=O)N1)[C@@H](C)O)C(=O)N1CCC[C@H]1C(=O)N[C@@H](CO)C(=O)N[C@@H](CO)C(=O)N[C@H](C(=O)N1CCC[C@H]1C(=O)N[C@H](C(=O)NCC(=O)N1CCC[C@H]1C(=O)N[C@@H](CC(N)=O)C(=O)N[C@H](C(=O)N[C@@H](Cc1ccc(O)cc1)C(N)=O)[C@@H](C)O)C(C)C)[C@@H](C)O),24.8,2.04
K([γGlu-γGlu-C20 diacid])CNTATCATQRLADFLRHSSPNFGAIPSSTNVGPETY-NH2 (disulfide 2-7),49.8,8.56

# The remaining binders from weak to strong by IC50 [2], led by results:
Ratio hCT/hAmylin binding [1],IC50 [2] [nM],Binder
280,127,"K([γGlu-γGlu-C20 diacid])CNTATCATQRLADFLRHSSPNFGAIPSSTNVGPRTY-NH2 (disulfide 2-7, also called compound 130)"
48.6,42.8,K([γGlu-γGlu-C20 diacid])CNTATCATQRLANFLRHSSPNFGAIPSSTPVGPRTY-NH2 (disulfide 2-7; N-terminus assumed; SMILES CC[C@H](C)[C@H](NC(=O)[C@H](C)NC(=O)CNC(=O)[C@H](Cc1ccccc1)NC(=O)[C@H](CC(N)=O)NC(=O)[C@@H]1CCCN1C(=O)[C@H](CO)NC(=O)[C@H](CO)NC(=O)[C@H](Cc1c[nH]cn1)NC(=O)[C@H](CCCNC(=N)N)NC(=O)[C@H](CC(C)C)NC(=O)[C@H](Cc1ccccc1)NC(=O)[C@H](CC(N)=O)NC(=O)[C@H](C)NC(=O)[C@H](CC(C)C)NC(=O)[C@H](CCCNC(=N)N)NC(=O)[C@H](CCC(N)=O)NC(=O)[C@@H](NC(=O)[C@H](C)NC(=O)[C@@H]1CSSC[C@H](NC(=O)[C@@H](N)CCCCNC(=O)CC[C@H](NC(=O)CC[C@H](NC(=O)CCCCCCCCCCCCCCCCCCC(=O)O)C(=O)O)C(=O)O)C(=O)N[C@@H](CC(N)=O)C(=O)N[C@@H]([C@@H](C)O)C(=O)N[C@@H](C)C(=O)N[C@@H]([C@@H](C)O)C(=O)N1)[C@@H](C)O)C(=O)N1CCC[C@H]1C(=O)N[C@@H](CO)C(=O)N[C@@H](CO)C(=O)N[C@H](C(=O)N1CCC[C@H]1C(=O)N[C@H](C(=O)NCC(=O)N1CCC[C@H]1C(=O)N[C@@H](CCCNC(=N)N)C(=O)N[C@H](C(=O)N[C@@H](Cc1ccc(O)cc1)C(N)=O)[C@@H](C)O)C(C)C)[C@@H](C)O)
